T1: monomeric hCD86 ECD (papain-digested hCD86-mIg) (human, UniProt P42081 24-243)
T1 construct: also called monomeric hCD86-mIg ligand; monomeric CD86 ECD
T1 chain: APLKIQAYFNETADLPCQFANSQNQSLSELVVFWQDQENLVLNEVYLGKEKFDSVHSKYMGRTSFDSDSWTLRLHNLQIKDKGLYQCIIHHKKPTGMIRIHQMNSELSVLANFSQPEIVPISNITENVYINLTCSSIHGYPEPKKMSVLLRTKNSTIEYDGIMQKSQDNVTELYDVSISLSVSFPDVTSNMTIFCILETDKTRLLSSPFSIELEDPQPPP

T2: full-length human CD86 on HEK293 cells (human, UniProt P42081 24-329)
T2 sequence: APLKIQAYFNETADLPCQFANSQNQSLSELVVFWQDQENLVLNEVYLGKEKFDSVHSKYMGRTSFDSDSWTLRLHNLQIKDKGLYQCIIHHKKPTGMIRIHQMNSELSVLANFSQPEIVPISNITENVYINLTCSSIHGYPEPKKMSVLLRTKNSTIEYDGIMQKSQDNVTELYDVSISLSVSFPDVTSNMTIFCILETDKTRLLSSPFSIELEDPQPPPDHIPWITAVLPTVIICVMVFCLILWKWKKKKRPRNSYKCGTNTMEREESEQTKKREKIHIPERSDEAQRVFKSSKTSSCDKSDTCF

T3: human CD86-murine Ig fusion protein (human)
T3 construct: Bought (Ancell #509-820); also called hCD86-mIg
T3 chain: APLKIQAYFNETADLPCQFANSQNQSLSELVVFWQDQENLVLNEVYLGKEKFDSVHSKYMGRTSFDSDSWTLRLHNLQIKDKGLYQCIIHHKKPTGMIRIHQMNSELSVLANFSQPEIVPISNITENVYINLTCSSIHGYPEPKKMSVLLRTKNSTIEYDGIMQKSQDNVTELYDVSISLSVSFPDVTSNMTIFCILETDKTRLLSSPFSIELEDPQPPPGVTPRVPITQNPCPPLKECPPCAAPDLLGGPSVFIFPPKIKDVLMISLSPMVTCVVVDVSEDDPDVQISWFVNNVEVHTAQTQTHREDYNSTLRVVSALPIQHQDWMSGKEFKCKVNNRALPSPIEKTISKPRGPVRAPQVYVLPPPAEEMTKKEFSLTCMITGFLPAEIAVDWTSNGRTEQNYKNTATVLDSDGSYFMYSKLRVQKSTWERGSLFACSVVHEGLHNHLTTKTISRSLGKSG

T4: human CD80-murine Ig fusion protein (human)
T4 construct: Bought (Ancell #510-820); also called hCD80-mIg; human CD80-murine IgG
T4 chain: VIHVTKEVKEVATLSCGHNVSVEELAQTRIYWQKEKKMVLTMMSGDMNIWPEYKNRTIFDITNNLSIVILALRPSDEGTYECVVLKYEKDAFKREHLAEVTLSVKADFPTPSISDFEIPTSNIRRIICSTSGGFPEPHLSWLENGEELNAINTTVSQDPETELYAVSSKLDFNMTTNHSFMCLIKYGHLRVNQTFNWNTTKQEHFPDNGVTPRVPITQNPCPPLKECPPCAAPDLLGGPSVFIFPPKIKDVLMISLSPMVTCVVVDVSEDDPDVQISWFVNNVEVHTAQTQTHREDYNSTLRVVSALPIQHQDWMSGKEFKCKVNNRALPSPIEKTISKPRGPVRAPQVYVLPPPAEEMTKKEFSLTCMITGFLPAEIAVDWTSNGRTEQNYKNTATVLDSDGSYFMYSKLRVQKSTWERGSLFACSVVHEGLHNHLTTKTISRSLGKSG

B1: D3-14-IgG2 (Fc fusion)
chain: MHVAQPAVVLASSRGIASFVCEYESPGKANEIRVTVLRQADSQVTEVCAMTYMKGDELTFLDDPSCTGTFSGNQVNLTIQGLRAADTGLYICKVELMYPPPYYLGIGNGTQIYVIDPEPCPDSDERKCCVECPPCPAPPVAGPSVFLFPPKPKDTLMISRTPEVTCVVVDVSHEDPEVQFNWYVDGVEVHNAKTKPREEQFNSTFRVVSVLTVVHQDWLNGKEYKCKVSNKGLPAPIEKTISKTKGQPREPQVYTLPPSREEMTKNQVSLTCLVKGFYPSDIAVEWESNGQPENNYKTTPPMLDSDGSFFLYSKLTVDKSRWQQGNVFSCSVMHEALHNHYTQKSLSLSPG
B2: D3-17-IgG2 (Fc fusion)
chain: B1 chain with A85M
B3: D3-34-IgG2 (Fc fusion)
chain: B1 chain with E24A, I32V, D56N, A85M
B4: D3-75-IgG2 (Fc fusion)
chain: B1 chain with I32V, G55E, D56N, A85M
B5: D3-39-IgG2 (Fc fusion)
chain: B1 chain with I32V, D56N, S65I, A85M
B6: D3-56-IgG2 (Fc fusion)
chain: B1 chain with E24A, I32V, G55E, D56N, A85M
B7: D3-65-IgG2 (Fc fusion)
chain: B1 chain with E24A, I32V, D56N, A85M, L104E
B8: D3-70-IgG2 (Fc fusion)
chain: B1 chain with I32V, D56N, A85M, L104E
B9: D3-69-IgG2 (Fc fusion)
chain: B1 chain with A85M, L104E
B10: D3-71-IgG2 (Fc fusion)
chain: B1 chain with E24A, A85M, L104E
B11: D3-62-IgG2 (Fc fusion)
chain: B1 chain with E24A, G55E, A85M
B12: D3-50-IgG2 (Fc fusion)
chain: B1 chain with E24A, I32V, S65I, A85M
B13: D3-73-IgG2 (Fc fusion)
chain: B1 chain with I32V, D56N, S65I, A85M, L104E
B14: D3-72-IgG2 (Fc fusion)
chain: B1 chain with D56N, A85M, L104E
B15: D3-52-IgG2 (Fc fusion)
chain: B1 chain with E24A, D56N, S65I, A85M
B16: D3-54-IgG2 (Fc fusion)
chain: B1 chain with E24A, I32V, G55E, D56N, S65I, A85M

This note sets out measurements from patent publication US20110177071A1 (PERSEID THERAPEUTICS, published 2011).

Substitutions are numbered along the chain they refer to. Some results are limits rather than exact numbers.

The Kd is a measure of binding affinity in units of concentration. Low values mean a tighter complex, high ones a looser complex.

The first test concerns the target T1, monomeric hCD86 ECD (papain-digested …). Nature of the test: SPR Biacore, fusion protein captured, monomeric hCD86 ECD in flow. On the procedure:
Regeneration between cycles was performed by 3 min incubation with 10 mM glycine buffer (pH 1.7) at 30 μl/min.
For kinetic analysis, data from monomeric binding assays were selected as described above except that association data selection began and ended 5 s from the injection start and stop times, and dissociation data selection started 5 s after the injection stop time, and typically included 1-60 s of the dissociation period. Such data were also analyzed for steady state equilibrium affinities using the BIAevaluation software. Steady state binding levels for each concentration (Responseeq (“Req”) values) were averaged over 5-20 s range near the end of the sample injection using the BIAevaluation “General fit: average” function.
Consider B1, for which the “Binding Affinity (Relative to LEA29Y-Ig)” value is above 5 fold and the Kd was below 336 nM.
For B2, the “Binding Affinity (Relative to LEA29Y-Ig)” value was above 5 fold and the Kd was below 336 nM.

The target of the next test is T2, full-length human CD86 on HEK293 cells. Nature of the test: cell-based or functional assay.
Take B1: the “Mean IC50 (nM), CD4+ T cell proliferation” value (“Mean IC50 (nM)” for short) came out at 0.04 nM.
B2: the “Mean IC50 (nM)” value is 0.03 nM.
On the same count and under the same terms, with B3 the figure was 0.05 nM; with B4, 0.03 nM; with B5, 0.05 nM.
On to B6, for which the “Mean IC50 (nM)” value is 0.04 nM.
Same read-out and setting: in the case of B7 it was 0.06 nM; in that of B8, 0.05 nM.
On the same count and under the same terms, in the case of B9 it was 0.03 nM; in that of B10, 0.04 nM; in that of B11, 0.04 nM.
As to B12, the “Mean IC50 (nM)” value was 0.06 nM.
On the same count and under the same terms, in the case of B13 it was 0.06 nM.
In the case of B14, the “Mean IC50 (nM)” value was found to be 0.03 nM.
On the same count and under the same terms, with B15 the figure was 0.07 nM.
On the same count and under the same terms, in the case of B16 it was 0.04 nM.

The target in a further test is T3, human CD86-murine Ig fusion protein. Nature of the test: SPR Biacore, hCD86-mIg captured. On the procedure: (§1) All Biacore™ analyses were performed on a Biacore™ 2000 system (GE Healthcare) at room temperature (RT, 25° C.). HBS-EP buffer (10 mM HEPES (pH 7.4), 150 mM NaCl, 3 mM EDTA, 0.005% surfactant P20) was used as the flow buffer for all experiments.
(§2) Rabbit anti-mouse IgG antibody (GE Healthcare, #BR-1005-14) was immobilized on CM5 sensor chips (GE Healthcare, #BR-1000-14) according to the manufacturer's protocol. Antibody was diluted to 30 μg/ml in immobilization buffer (10 mM sodium acetate, pH 5.0 (BR-1003-51)). At a flow rate of 5 μl/minute, sensor chip CM5 was activated with a 35 μl injection of a mixture of 1-Ethyl-3-[3-dimethylaminopropyl]carbodiimide hydrochloride (EDC) and N-hydroxysuccinimide (NHS) (made by mixing equal volumes of 11.5 mg/ml EDC and 75 mg/ml NHS) (GE Healthcare, #BR-1000-50), followed by a 35 μl injection of undiluted antibody. Un-reacted sites were quenched with 35 μl of 1M ethanolamine-HCL, pH 8.5 (GE Healthcare, #BR-1000-50). […] CTLA-4 ligands human CD80-murine Ig (hCD80-mIg) (Ancell, #510-820) or human CD86-murine Ig (hCD86-mIg) (Ancell, #509-820) were bound to antibody-coated sensor chips by injection of 10 μl or 16 μl, respectively, ligand solution (2 μg/ml protein in HBS-EP buffer [10 mM HEPES pH 7.4, 150 mM NaCl, 3 mM EDTA, 0.005% (v/v) surfactant P-20, GE Healthcare, #BR-1001-88]) at a flow rate of 10 μl/min.
A general note: In SPR one partner is held on a chip, and binding of the other changes the refractive index at the surface.
As to B1, the “Binding Avidity (Relative to Orencia)” value is above 40 fold and the Kd is below 0.131 nM.
As for B2, the “Binding Avidity (Relative to Orencia)” value was above 40 fold and the Kd was below 0.131 nM.
For the molecule B3, the Kd was 0.131 to 0.262 nM.
In the case of B4, the “Binding Avidity (Relative to Orencia)” value is above 40 fold and the Kd is below 0.131 nM.
The molecule B5 came in with a Kd of 0.262 to 0.523 nM.
B6: the “Binding Avidity (Relative to Orencia)” value is above 40 fold and the dissociation constant (Kd) was below 0.131 nM.
The matching figures for B7: above 40 fold and below 0.131 nM.
The matching figures for B8: above 40 fold and below 0.131 nM.
The matching figures for B9: above 40 fold and below 0.131 nM.
For B10, the “Binding Avidity (Relative to Orencia)” value was above 40 fold and the equilibrium dissociation constant (Kd) is below 0.131 nM.
The matching figures for B11: above 40 fold and below 0.131 nM.
Take B12: the Kd was 0.131 to 0.262 nM.
On to B13, for which the “Binding Avidity (Relative to Orencia)” value was above 40 fold and the Kd is below 0.131 nM.
Turning to B14, the “Binding Avidity (Relative to Orencia)” value was above 40 fold and the Kd is below 0.131 nM.
The molecule B15 displayed a Kd of 0.262 to 0.523 nM.
As to B16, the “Binding Avidity (Relative to Orencia)” value is above 40 fold and the Kd was below 0.131 nM.

In another test the target is T4, human CD80-murine Ig fusion protein. The test is described as follows: SPR Biacore, hCD80-mIg captured. On the procedure:
as §1, §2
The molecule B1 returned a Kd of 0.439 to 1.75 nM.
With B2, the Kd is 0.439 to 1.75 nM.
Still for that read-out and setting: in the case of B3 it was 0.439 to 1.75 nM.
B4: the “Binding Avidity (Relative to Orencia)” value was above 2 fold and the Kd was below 0.439 nM.
Regarding B5, the Kd fell in the range of 0.439 to 1.75 nM.
In the case of B6, the Kd lay in the range of 0.439 to 1.75 nM.
In the case of B7, the “Binding Avidity (Relative to Orencia)” value is above 2 fold and the Kd was below 0.439 nM.
Consider B8, for which the “Binding Avidity (Relative to Orencia)” value is above 2 fold and the Kd is below 0.439 nM.
On the same counts, the results for B9 are above 2 fold and below 0.439 nM.
The matching figures for B10: above 2 fold and below 0.439 nM.
The matching figures for B11: above 2 fold and below 0.439 nM.
Consider B12, for which the Kd is 0.439 to 1.75 nM.
On to B13, for which the “Binding Avidity (Relative to Orencia)” value is above 2 fold and the Kd was below 0.439 nM.
With B14, the “Binding Avidity (Relative to Orencia)” value was above 2 fold and the Kd was below 0.439 nM.
In turn, B15 showed a Kd of 0.439 to 1.75 nM.
Still for that read-out and setting: with B16 the figure was 0.439 to 1.75 nM.
